The results in this text go back to patent publication US20190185562A1 (Regeneron, published 2019).

Bounds are passed on as bounds.

A word on the IC50: it is the point on the concentration scale where inhibition reaches its midpoint.

For assay [1], the target named is T1, human gp130 expressed endogenously on IMR-32/Stat3-luc cells (human, UniProt P40189 23-918).
T1 construct: whole, on cells
T1 sequence (looked up): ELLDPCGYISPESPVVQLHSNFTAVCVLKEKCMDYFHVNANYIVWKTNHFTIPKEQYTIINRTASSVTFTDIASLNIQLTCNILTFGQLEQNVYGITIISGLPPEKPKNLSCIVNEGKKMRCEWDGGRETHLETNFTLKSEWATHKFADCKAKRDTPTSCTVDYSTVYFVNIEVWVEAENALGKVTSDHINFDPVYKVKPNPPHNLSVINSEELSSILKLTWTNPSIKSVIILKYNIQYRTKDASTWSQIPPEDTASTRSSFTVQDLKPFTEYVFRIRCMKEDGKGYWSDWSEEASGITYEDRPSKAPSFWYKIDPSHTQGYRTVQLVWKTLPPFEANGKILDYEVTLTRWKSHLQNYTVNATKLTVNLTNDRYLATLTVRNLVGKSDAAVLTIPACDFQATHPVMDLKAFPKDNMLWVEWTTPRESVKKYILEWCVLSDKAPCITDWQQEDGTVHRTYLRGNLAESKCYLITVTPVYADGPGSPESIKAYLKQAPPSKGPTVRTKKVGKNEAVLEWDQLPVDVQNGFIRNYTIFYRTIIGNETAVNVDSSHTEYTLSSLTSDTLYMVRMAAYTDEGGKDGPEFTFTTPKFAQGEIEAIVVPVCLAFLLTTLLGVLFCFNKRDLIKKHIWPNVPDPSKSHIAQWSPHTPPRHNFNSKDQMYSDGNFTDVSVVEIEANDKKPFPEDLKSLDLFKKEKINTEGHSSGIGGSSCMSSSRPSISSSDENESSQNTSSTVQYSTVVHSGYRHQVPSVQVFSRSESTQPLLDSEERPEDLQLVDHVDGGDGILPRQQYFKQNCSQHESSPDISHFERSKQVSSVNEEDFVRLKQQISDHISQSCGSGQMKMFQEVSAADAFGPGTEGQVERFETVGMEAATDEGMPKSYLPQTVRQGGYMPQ
Nature of the assay: FACS, 10 nM mAb, IMR-32/Stat3-luc cells, no hGP130.mmh. From the text:
(§1) In order to assess cell binding by anti-GP130 antibodies of the invention two cell lines were generated. One cell line generated was HEK293 cells stably over-expressing full length (FL) human gp130 (amino acids 1-918 of accession # P40189 with leucine at position 2 changed to valine, a natural variant) along with a luciferase reporter (Stat3-luciferase, Stat3-luc, SA Bioscience, #CLS-6028L). The cells were sorted twice using flow cytometry for high expression of gp130. It is known hereafter as HEK293/Stat3-luc/gp130-2X Sort. IMR-32 cells (human Neuroblastoma, ATCC), were also evaluated for cell binding as these cells express gp130 endogenously and were used for bioassays. The cells used for binding were generated to stably express a luciferase reporter (Stat3-luciferase, Stat3-luc, SA Bioscience, #CLS-6028L), and are referred to hereafter as IMR-32/STAT3-Luc cells.
(§2) For the FACS analysis, 10 nM of the antibodies were used to stain 0.5×10^6 cells/well of each cell type at 4° C. in PBS (without calcium and magnesium) containing 2% FBS for 30 minutes. IMR-32/STAT3-luc cells were incubated with 1 mg/mL mouse IgG for 30 minutes at 4° C. to block Fc receptors prior to adding the antibodies. To test whether the anti-gp130 antibody binding is specific for gp130 on the IMR-32 cells, antibodies were added to IMR-32/Stat3-luc cells with or without being pre-bound to 1000 nM of recombinant protein of the ecto-domain of human gp130 fused to myc-myc-his tag (hgp130.mmh) for 30 minutes at 25° C. […] Cells were fixed using BD CytoFix™ (Becton Dickinson, #554655) and analyzed on an IQue® (Intellicyt®) Flow Cytometer. Unstained and secondary antibody alone controls were also tested for all cell lines. The results were analyzed using ForeCyt® (IntelliCyt®) software to determine the geometric means of fluorescence for viable cells.

For assay [2], the target named is T1, human gp130 expressed endogenously on …. Nature of the assay: FACS, 10 nM mAb, IMR-32/Stat3-luc cells, competitor 1 uM hGP130.mmh.
Excerpt: as §1, §2
In general terms: In flow cytometry, cells or beads pass a laser one at a time.

The target in assay [3] is T2, full length (FL) human gp130 over-expressed on HEK293/Stat3-luc/gp130-2X Sort cells (human, UniProt P40189 23-918).
T2 construct: whole, on cells
T2 sequence (looked up): T1 sequence (looked up)
The experiment in a line: FACS, 10 nM mAb, 293/Stat3-luc/GP130 2X sort cells.
Excerpt: as §1, §2

Assay [4] deals with T3, human gp130 extracellular domain with the Fc portion of mouse IgG2a at the C-terminus (human).
T3 construct: Dimeric; also called hGP130-mFc; dimeric GP130 protein
T3 chain: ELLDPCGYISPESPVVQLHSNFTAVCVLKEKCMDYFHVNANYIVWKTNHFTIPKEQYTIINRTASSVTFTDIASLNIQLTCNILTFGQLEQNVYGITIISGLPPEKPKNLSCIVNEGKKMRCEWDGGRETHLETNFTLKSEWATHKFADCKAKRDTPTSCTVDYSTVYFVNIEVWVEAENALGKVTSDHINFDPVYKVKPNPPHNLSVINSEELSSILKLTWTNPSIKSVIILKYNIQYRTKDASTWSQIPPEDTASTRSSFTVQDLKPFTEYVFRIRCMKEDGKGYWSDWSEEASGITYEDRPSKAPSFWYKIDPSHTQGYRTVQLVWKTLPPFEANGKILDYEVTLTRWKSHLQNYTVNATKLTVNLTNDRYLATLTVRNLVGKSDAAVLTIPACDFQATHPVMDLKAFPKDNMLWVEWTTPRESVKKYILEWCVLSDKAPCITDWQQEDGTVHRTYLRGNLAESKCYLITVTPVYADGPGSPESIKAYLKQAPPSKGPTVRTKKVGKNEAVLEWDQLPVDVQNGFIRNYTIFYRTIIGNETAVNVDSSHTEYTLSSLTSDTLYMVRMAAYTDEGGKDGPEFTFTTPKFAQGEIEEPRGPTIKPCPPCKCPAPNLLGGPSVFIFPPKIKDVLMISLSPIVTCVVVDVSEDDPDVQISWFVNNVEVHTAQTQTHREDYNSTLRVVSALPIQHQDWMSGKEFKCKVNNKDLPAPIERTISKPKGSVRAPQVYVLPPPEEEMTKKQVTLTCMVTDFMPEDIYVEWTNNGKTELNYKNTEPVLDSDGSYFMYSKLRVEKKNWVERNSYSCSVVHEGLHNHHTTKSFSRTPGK
Nature of the assay: blocking ELISA, 2.5 nM hGP130-mFc to plate-bound CNTFR/CNTF complex; * below the lower limit of quantitation of 1.25E-09 M. How it is done: The experiment was carried out using the following procedure. Human CNTFRα was coated at a concentration of […] in HBSS on a 96-well microtiter plate overnight at 4° C. […] Human CNTF at a concentration of 1 μg/ml in HBSS was added to the plate bound CNTFRα for 1 hour at room temperature. In separate dilution plates, a constant amount of 2.5 nM of human GP130-mFc protein was titrated with antibodies ranging from 3.4 pM to 200 nM in serial dilution and with no antibody present. These solutions were incubated for 1 hour at room temperature (RT) and subsequently transferred to the microtiter plates with CNTFRα/CNTF complex without washing. The plates were incubated for 2 hours at RT, washed with PBST buffer, and plate-bound hGP130-mFc was detected with an anti-mFc polyclonal antibody conjugated with horseradish peroxidase (HRP) (Jackson ImmunoResearch Inc). Samples were developed with a TMB solution (BD Biosciences, substrate A and B mixed at 1:1 ratio as per manufacturer's instructions) to produce a colorimetric reaction and then neutralized with 1M sulfuric acid before measuring absorbance at 450 nm on a Victor ×5 plate reader.

B1: MAb16666 (antibody, V domains shown)
VH: EVQLVESGGGLVQSGGSLRLSCAASGFTFSRYEMNWVRQAPGKGLEWVAYISNTGTTRDYSDSVKGRFTISRDNAKNSLYLQMSSLRVEDTAVYYCVREKFSGTSDWFDPWGQGTLVTVSS
VL: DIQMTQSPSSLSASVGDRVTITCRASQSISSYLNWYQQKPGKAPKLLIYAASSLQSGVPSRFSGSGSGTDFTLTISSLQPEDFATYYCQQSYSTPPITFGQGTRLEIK
notes: Variable domains only
Take B1: the “MFI - Normalized to Unstained Control” value in assay [1] turned out to be 23; in assay [2], 8; in assay [3] it was 159. Also, the IC50 in assay [4] is less than 1.25 nM.
